Holding throughout (test): ELISA
In general terms: An ELISA detects its analyte on a solid surface through an enzyme-linked reagent.

In experiment [1] the target is T1, misfolded (denatured) human SOD1 (human, UniProt P00441).
The target of experiment [2] is T1, misfolded (denatured) human SOD1. This is another data set of the same source.
Experiment [3] shares this target. This is another data set of the same source.

Where two headings read alike, the source gives them in different places.

T1 sequence (P00441 2-154): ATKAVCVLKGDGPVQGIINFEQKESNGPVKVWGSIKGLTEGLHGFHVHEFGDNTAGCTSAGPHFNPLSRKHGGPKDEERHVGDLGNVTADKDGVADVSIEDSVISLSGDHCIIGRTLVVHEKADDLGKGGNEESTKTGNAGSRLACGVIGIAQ

B1: Degly-natZr-DFO-AP-101 (antibody, V domains shown)
VH: QVQLVQSGAEVKKPGASVTLSCKASGYTFTAYYIHWVRQAREQGLEWMGVINPSTGTTFYAQNFPDRVSVTRDTSTSTVFMELHNLKSEDTAVYYCARAISEHGSGSYSPYYWGQGTLVTVSS
VL: SYELTQPPSVSVSLGQMAAITCSGEALPKKYGYWYQQKPGQVPVLLIYRDVERPSGVPDRFSGSSSGTMVTLTISGVQAEDEADYYCLSADSSGTWVFGGGTKLTVLG
modifications: EndoS2 deglycosylated, DFO conjugated on lysines (0.6:1.0), natZr labelled
Regarding B1, the EC50 in experiment [1] is 2.4 nM. In other words, the single-digit nanomolar range.

B2: AP-101 (non-modified alpha-miSOD1) (antibody, V domains shown)
VH: B1 VH
VL: B1 VL
Take B2: the EC50 in experiment [2] turned out to be 0.2 nM.

B3: natZr-DFO-AP-101 (antibody, V domains shown)
VH: B1 VH
VL: B1 VL
modifications: DFO chelator conjugated on lysines (DFO:antibody 1.1:1.0), natZr labelled
With B3, the EC50 in experiment [3] stood at 0.5 nM; in experiment [1], 0.3 nM.

The term EC50 denotes the concentration giving half of the maximal effect. A low value points to an effect from little substance.

(Values after US20260306683 (published 2026).)
